From publication PMC12002259, “Monomers and short oligomers of human RAD52 promote single-strand annealing” (Proceedings of the National Academy of Sciences of the …, 2023)
Values joined by “and” are separate entries in the source; they are usually repeats but may differ in a detail not shown here. Equal entries are not always repeated.

Tests used:
RAD52 full length [1] = molecular target: T1, RAD52 full length (human, UniProt P43351 1-418); experiment: EMSA; 25 C; Hill fixed at 1; EMSA: 25 mM Tris-acetate, 2 mM Mg(OAc)2, 1 mM DTT, pH 7.5, 10 nM ssDNA, 25 C 10 min or 37 C 5 min; mass photometry: 20 mM Tris-HCl, 50 mM NaCl, pH 7.5; details: protein: recombinant; tags: His-tag (pET-15b)
T1 sequence: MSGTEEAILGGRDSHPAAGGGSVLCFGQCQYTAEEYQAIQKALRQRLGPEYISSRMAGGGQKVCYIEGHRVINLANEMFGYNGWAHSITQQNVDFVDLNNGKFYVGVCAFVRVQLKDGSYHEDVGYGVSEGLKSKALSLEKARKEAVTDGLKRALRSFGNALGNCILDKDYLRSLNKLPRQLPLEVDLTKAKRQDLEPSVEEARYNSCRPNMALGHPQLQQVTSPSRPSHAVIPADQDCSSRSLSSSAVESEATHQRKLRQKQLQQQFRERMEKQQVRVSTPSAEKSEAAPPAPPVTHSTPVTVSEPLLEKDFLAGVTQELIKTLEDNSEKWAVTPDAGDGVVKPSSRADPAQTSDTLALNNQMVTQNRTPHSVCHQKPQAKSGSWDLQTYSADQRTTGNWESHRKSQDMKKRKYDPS

RAD52(209) [2] = molecular target: T2, RAD52(209) (human, UniProt P43351 1-209); experiment: EMSA; 25 C; Hill 1.6 ± 0.3; EMSA: 25 mM Tris-acetate, 2 mM Mg(OAc)2, 1 mM DTT, pH 7.5, 10 nM ssDNA, 25 C 10 min or 37 C 5 min; mass photometry: 20 mM Tris-HCl, 50 mM NaCl, pH 7.5; details: protein: recombinant; tags: His-tag (pET-15b); chain copies: 11
T2 sequence: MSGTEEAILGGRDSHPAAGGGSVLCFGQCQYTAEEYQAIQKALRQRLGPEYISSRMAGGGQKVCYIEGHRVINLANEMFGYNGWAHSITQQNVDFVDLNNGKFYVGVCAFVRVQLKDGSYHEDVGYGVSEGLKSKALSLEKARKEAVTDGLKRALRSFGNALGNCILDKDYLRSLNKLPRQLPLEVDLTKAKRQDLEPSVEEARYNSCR

RAD52 full length [3] = molecular target: T1, RAD52 full length; experiment: EMSA; 37 C; Hill 3.3 ± 0.2; EMSA: 25 mM Tris-acetate, 2 mM Mg(OAc)2, 1 mM DTT, pH 7.5, 10 nM ssDNA, 25 C 10 min or 37 C 5 min; mass photometry: 20 mM Tris-HCl, 50 mM NaCl, pH 7.5; details: protein: recombinant; tags: His-tag (pET-15b)
RAD52(209) [4] = molecular target: T2, RAD52(209); experiment: EMSA; 37 C; Hill 4.1 ± 0.4; EMSA: 25 mM Tris-acetate, 2 mM Mg(OAc)2, 1 mM DTT, pH 7.5, 10 nM ssDNA, 25 C 10 min or 37 C 5 min; mass photometry: 20 mM Tris-HCl, 50 mM NaCl, pH 7.5; details: protein: recombinant; tags: His-tag (pET-15b); chain copies: 11
RAD52(209) [5] = molecular target: T2, RAD52(209); experiment: mass photometry; 100 nM protein, 10 nM DNA; ring shift 40 ± 4 kDa; EMSA: 25 mM Tris-acetate, 2 mM Mg(OAc)2, 1 mM DTT, pH 7.5, 10 nM ssDNA, 25 C 10 min or 37 C 5 min; mass photometry: 20 mM Tris-HCl, 50 mM NaCl, pH 7.5; details: protein: recombinant; tags: His-tag (pET-15b); chain copies: 11
[6] = molecular target: the molecule itself; experiment: mass photometry; concentration series 10 to 200 nM protein, cumulative histograms from four measurements; Buffer 1 (20 mM Tris-HCl, 50 mM NaCl, pH 7.5); linear fits and a global fit of noncooperative (isodesmic) assembly coupled with preferential cyclization; Kd is that of a monomer associating with an oligomer of n subunits
[7] = molecular target: the molecule itself; experiment: mass photometry; single 60-s reading at 200 nM protein, label-free, adsorbed on glass; Buffer 1 (20 mM Tris-HCl, 50 mM NaCl, pH 7.5); stock diluted to 1 uM, then to the final concentration, measured directly after dilution; size of the oligomers
RAD52(209) [8] = molecular target: T2, RAD52(209); experiment: mass photometry; 100 nM protein, 10 nM DNA; ring shift 32 ± 2 kDa; EMSA: 25 mM Tris-acetate, 2 mM Mg(OAc)2, 1 mM DTT, pH 7.5, 10 nM ssDNA, 25 C 10 min or 37 C 5 min; mass photometry: 20 mM Tris-HCl, 50 mM NaCl, pH 7.5; details: protein: recombinant; tags: His-tag (pET-15b); chain copies: 11
RAD52(209) [9] = molecular target: T2, RAD52(209); experiment: EMSA; 37 C; Hill 3.1 ± 0.5; EMSA: 25 mM Tris-acetate, 2 mM Mg(OAc)2, 1 mM DTT, pH 7.5, 10 nM ssDNA, 25 C 10 min or 37 C 5 min; mass photometry: 20 mM Tris-HCl, 50 mM NaCl, pH 7.5; details: protein: recombinant; tags: His-tag (pET-15b); chain copies: 11
RAD52 full length [10] = molecular target: T1, RAD52 full length; experiment: EMSA; 37 C; Hill 2.7 ± 0.2; EMSA: 25 mM Tris-acetate, 2 mM Mg(OAc)2, 1 mM DTT, pH 7.5, 10 nM ssDNA, 25 C 10 min or 37 C 5 min; mass photometry: 20 mM Tris-HCl, 50 mM NaCl, pH 7.5; details: protein: recombinant; tags: His-tag (pET-15b)
RAD52 full length [11] = molecular target: T1, RAD52 full length; experiment: EMSA; 25 C; Hill 1.4 ± 0.2; EMSA: 25 mM Tris-acetate, 2 mM Mg(OAc)2, 1 mM DTT, pH 7.5, 10 nM ssDNA, 25 C 10 min or 37 C 5 min; mass photometry: 20 mM Tris-HCl, 50 mM NaCl, pH 7.5; details: protein: recombinant; tags: His-tag (pET-15b)
RAD52(209) [12] = molecular target: T2, RAD52(209); experiment: EMSA; 25 C; Hill 1.5 ± 0.2; EMSA: 25 mM Tris-acetate, 2 mM Mg(OAc)2, 1 mM DTT, pH 7.5, 10 nM ssDNA, 25 C 10 min or 37 C 5 min; mass photometry: 20 mM Tris-HCl, 50 mM NaCl, pH 7.5; details: protein: recombinant; tags: His-tag (pET-15b); chain copies: 11

B1: 70 nt (ssDNA)
DNA: TTTAATAATTTACTTTATTTTCTATGTCTATTCATTTACTTATTGTGTATTATCCTTATACTTACTTAC
Binder B1 has a Kd (RAD52 full length [1]) of 53 ± 8 nM and a Kd (RAD52(209) [2]) of 109 ± 23 nM.

B2: 60 nt (ssDNA)
DNA: TCCTTTTGATAAGAGGTCATTTTTGCGGATGGCTTAGAGCTTAATTGCTTTTTTTTTTTT
For B2, the Kd (RAD52 full length [3]) was 112.4 ± 0.1 nM and the Kd (RAD52(209) [4]) was 127 ± 10 nM.

B3: 83 nt (ssDNA)
DNA: TTTATATAATTTACTTTATTTTCTATGTCTATTCATTTACTTATTGTGTATTATCCTTATACTTACTTACTTTATGTTTATTT
B3: binds (RAD52(209) [5]).

B4: full-length human RAD52 (natural protein, UniProt P43351 1-418, looked up)
chain: T1 sequence
notes: RAD52, human, full length; Expressed from pET-15b (plasmid a gift of W. Kagawa); No tag cleavage is described; The entry describes the protomer; the oligomer size varies with concentration; source: E. coli BL21(DE3) with pRARE, purified (Ni-NTA, size-exclusion chromatography)
B4 was tested, and the Kd [6] was 14 ± 2 nM, the “stoichiometry N” value [6] was 10.6 protomers per ring and 7 protomers to 13 protomers (2×) and the “stoichiometry N” value [7] was 8 protomers to 12 protomers (2×) and 10.

GCAATTAAGCTCTAAGCCATCCGCAAAAATGACCTCTTATCAAAAGGA (ssDNA) [48 nt unlabeled]: binds (RAD52(209) [8]).

B5: RAD52(209), human RAD52 truncated after amino acid 209 (domain or fragment, UniProt P43351 1-209, looked up)
chain: T2 sequence
notes: Expressed from pET-15b (plasmid a gift of S. C. West); No tag cleavage is described; The entry describes the protomer; also called C-terminally truncated RAD52; source: E. coli BL21(DE3) with pRARE, purified (Ni-NTA, size-exclusion chromatography)
In the case of B5, the “stoichiometry N” value [7] is reported as 11.

With GCTCTAAGCCATCCGCAAAAATGACCTCTTAT (ssDNA) [32 nt] the Kd (RAD52(209) [9]) was 246 ± 33 nM, the Kd (RAD52 full length [10]) was 135 ± 4 nM and the Kd (RAD52 full length [11]) was 115 ± 22 nM. It also gave a Kd (RAD52(209) [12]) of 169 ± 24 nM.
